These results are taken from PMC11193720.

In assay [1] the target is VZV glycoprotein C gC_(S147-V531) (varicella zoster virus, Dumas strain).
Assay [2] has as its target VZV glycoprotein C construct gC Y419-S523 (varicella zoster virus (Dumas strain)). In words: SPR. (Surface plasmon resonance follows binding to a sensor surface in real time, without labels.)
In assay [3] the target is VZV glycoprotein C gC_(S147-V531) (varicella zoster virus, Dumas strain). In words: SPR + other: grating-coupled interferometry (GCI).
The target of assay [4] is VZV glycoprotein C gC_(Y322-S523) (varicella zoster virus, Dumas strain). Description: SPR + other: grating-coupled interferometry (GCI).
In assay [5] the target is VZV glycoprotein C gC_(Y419-S523) (varicella zoster virus, Dumas strain). In words: SPR + other: grating-coupled interferometry (GCI).
Sequence of VZV glycoprotein C gC_(Y419-S523) (varicella zoster virus, Dumas strain) (P09256 450-554 limits assumed): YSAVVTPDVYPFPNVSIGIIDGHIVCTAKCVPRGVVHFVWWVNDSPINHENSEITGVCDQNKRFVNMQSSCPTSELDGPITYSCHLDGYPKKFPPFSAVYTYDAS

Sequence of VZV glycoprotein C construct gC Y419-S523 (varicella zoster virus (Dumas strain)) (P09256 450-554 limits assumed): as above
Sequence of VZV glycoprotein C gC_(S147-V531) (varicella zoster virus, Dumas strain) (P09256 178-562 limits assumed): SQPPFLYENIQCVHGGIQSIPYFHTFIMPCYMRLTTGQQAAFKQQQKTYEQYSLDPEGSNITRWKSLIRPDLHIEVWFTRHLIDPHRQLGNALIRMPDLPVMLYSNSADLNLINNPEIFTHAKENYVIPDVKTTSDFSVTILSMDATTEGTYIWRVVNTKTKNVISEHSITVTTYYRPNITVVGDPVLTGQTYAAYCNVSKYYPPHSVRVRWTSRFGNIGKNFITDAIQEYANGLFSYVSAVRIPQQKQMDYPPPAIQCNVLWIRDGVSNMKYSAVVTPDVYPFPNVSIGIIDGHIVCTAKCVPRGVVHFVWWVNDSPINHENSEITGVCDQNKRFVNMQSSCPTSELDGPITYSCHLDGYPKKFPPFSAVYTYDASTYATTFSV
Sequence of VZV glycoprotein C gC_(Y322-S523) (varicella zoster virus, Dumas strain) (P09256 353-554 limits assumed): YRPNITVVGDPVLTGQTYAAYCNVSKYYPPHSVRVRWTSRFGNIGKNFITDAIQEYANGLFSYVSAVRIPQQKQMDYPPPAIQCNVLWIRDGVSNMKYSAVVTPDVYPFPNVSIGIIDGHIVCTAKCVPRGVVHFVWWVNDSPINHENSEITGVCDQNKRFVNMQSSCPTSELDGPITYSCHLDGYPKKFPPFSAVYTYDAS

Regarding “interferon-gamma (IFN-γ) (from UniProt P01579 24-161) (ligand)”, the adhesion of Jurkat cells to HaCaT cells stimulated with 5 ng/mL IFN-γ and 300 nM gC construct, fold against IFN-γ alone in assay [1] stood at 2.7 fold. In assay [2], the Kd (commonly the constant that tells how readily two partners part at equilibrium) was 18 nM; the off-rate constant (koff) (as a rule, the first-order rate constant of dissociation) came out at 0.0244 s⁻¹; the kon (commonly the second-order rate constant of association) amounted to 1.35e+06 M⁻¹ s⁻¹. Also, the off-rate of the transient interaction (Kd1), heterogenous ligand fit in assay [3] was 0.04 s⁻¹. Also, in assay [4], the off-rate of the transient interaction (Kd1), heterogenous ligand fit was 0.04 s⁻¹. Also, in assay [5], the dissociation rate constant (koff) was 0.02 s⁻¹.
